Laboratory results reported in patent US20220135701A1 (Genentech, published 2022).

B1: Rbt12H4 (antibody, V domains shown)
VH: QSVEESGGRLVTPGTPLTVTCTVSGFSLSVYGMGWVRQAPGKGLEYIGFINNVGNTYYASWAKGRFTISKTSTTVDLKITSPTTEDTATYFCAKGGGGDWGYFNIWGPGTLVTVSL
VL: DVVMTQTPASVEAAVGGTVTIKCQASQSIGNALAWYQQKPGQRPKLLIYAASNLASGVPSRFAGSGSGTQFTLTISDLECADAATYYCQTYYAINRYGGAFGGGTEVVVK
notes: Recombinant rabbit monoclonal antibody, Expi293, protein A purified
B2: Rbt11G11 (antibody, V domains shown)
VH: QELVESGGGLVQAGESLKLSCKASGIDFSSYGISWVRQAPGKGLEWIAYIYPGFGITNYAHSVKGRFTISSDNAQNTVFLQMPSLTASDTATYFCARDLDYTGGVVGYAYVTYYFTLWGPGTLVTVSS
VL: DPVLTQTPSSVEAAVGGTVTIKCQASESISSRLAWYQQKPGQPPKLLIYSASTLASGVSSRFKGSGSGTEFTLTISDLECADAATYYCQTYYGGSTTGWYVFGGGTEVVVK
notes: as for B1
B3: Rbt13B4 (antibody, V domains shown)
VH: QSVEESGGRLVTPGTPLTLTCTVSGFSLSSYAMGWVRQAPGKGLEWIGIINSYGNTYYANWAKGRFTISRTSTTVDLRMPSLTTEDTATYFCARDPGVSSNLWGPGTLVTVSS
VL: DVVMTQTPASVSEPVGGTVTIKCQASQNIYSGLAWYQQKPGQPPKLLIYGASKLASGVSSRFKGSGSGTEFTLTISDLECADAATYYCQATYYSSNSVAFGGGTEVVVK
notes: Recombinant rabbit monoclonal antibody, Expi293, protein A purified; also called Rb13B4
B4: Rbt18G7 (antibody, V domains shown)
VH: QSLEESGGRLVTPGTPLTLTCTVSGIDLSSYALGWVRQAPGKGLEYIGIISSTGTTYYATWAKGRFTISKTSSTTVDLKITGPTTEDTATYFCARGAYAGYVAFGPYYFHIWGPGTLVTISL
VL: DIVMTQTPASVEAAVGGTVTIKCQASQSISNFLAWYQQKPGQPPKVLIYAASHLASGVPSRFKGSGSGTQFTLTISDLECADAATYYCQSYFYSSTSIYNAFGGGTEVVVR
notes: as for B1
B5: Rbt14C9 (antibody, V domains shown)
VH: QSVEESGGRLVTPGTPLTLTCTVSGIDLSANTMNWVRQAPGKGLEWIGIFTATGSTYYATWVNGRFTISKTSTTVDLKITSPTTEDTATYFCARSGSGSSSGAFNIWGPGTLVTVSL
VL: DPVLTQTPASVSEPVGGTVTIKCQASQSISSSLAWYQQKPGQPPKLLIYAASILASEISSRFKGSRSGTEFTLTISDLECADAATYYCQCTSYGSLFLGPFGGGTEVVVK
notes: as for B1

The binders below were run against T1, human MerTK (human, UniProt Q12866 26-499) (assay: SPR BIAcore T200, Ab captured, 25C).
T1 construct: also called HuMER
T1 sequence: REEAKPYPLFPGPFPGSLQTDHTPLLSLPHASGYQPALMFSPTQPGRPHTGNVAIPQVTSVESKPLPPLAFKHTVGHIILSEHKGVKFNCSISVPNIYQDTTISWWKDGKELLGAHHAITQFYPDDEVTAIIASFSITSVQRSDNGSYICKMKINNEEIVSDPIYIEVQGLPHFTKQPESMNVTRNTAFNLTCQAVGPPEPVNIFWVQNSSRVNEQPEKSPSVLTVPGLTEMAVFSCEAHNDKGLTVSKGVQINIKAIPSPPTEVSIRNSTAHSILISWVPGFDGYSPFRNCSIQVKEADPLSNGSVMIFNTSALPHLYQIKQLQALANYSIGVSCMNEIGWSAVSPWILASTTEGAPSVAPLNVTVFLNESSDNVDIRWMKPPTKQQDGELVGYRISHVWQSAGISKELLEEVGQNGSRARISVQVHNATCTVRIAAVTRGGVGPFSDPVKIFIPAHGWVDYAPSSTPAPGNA
Protocol: (§1) All binding affinity determinations were obtained using Surface Plasmon Resonance (SPR) measurements from a BIAcore™-T200 instrument. Briefly, each rabbit or humanized antibody was captured to achieve approximately 100 RU (Response Units). Then, 3-fold serial dilutions of MerTK from various species (0.4 nM to 100 nM) diluted in HBS-EP buffer (0.01M HEPES pH 7.4, 0.15M NaCl, 3 mM EDTA and 0.05% v/v surfactant P20) was injected into the BIAcore™-T200 instrument at 25° C. or 37° C. with a flow rate of 30 μl/min. Association rates (kₒₙ) and dissociation rates (koff) were calculated using a simple one-to-one Langmuir binding model (BIAcore T200 evaluation software version 2.0). The equilibrium dissociation constant (KD) was calculated as the ratio koff/kₒₙ.
With B1 the Kd was 18 nM. B2 was tested, and the Kd was 31.3 nM. Work on B3 yielded a Kd of 2.9 nM. With B4 the Kd was 2.3 nM.

What follows are binders tested against T2, cynomolgus monkey MerTK (cynomolgus monkey, UniProt A0A2K5V1H9 32-505) (assay: SPR BIAcore T200, Ab captured, 25C).
T2 construct: Soluble analyte in SPR; also called Cyno MerTK
T2 sequence: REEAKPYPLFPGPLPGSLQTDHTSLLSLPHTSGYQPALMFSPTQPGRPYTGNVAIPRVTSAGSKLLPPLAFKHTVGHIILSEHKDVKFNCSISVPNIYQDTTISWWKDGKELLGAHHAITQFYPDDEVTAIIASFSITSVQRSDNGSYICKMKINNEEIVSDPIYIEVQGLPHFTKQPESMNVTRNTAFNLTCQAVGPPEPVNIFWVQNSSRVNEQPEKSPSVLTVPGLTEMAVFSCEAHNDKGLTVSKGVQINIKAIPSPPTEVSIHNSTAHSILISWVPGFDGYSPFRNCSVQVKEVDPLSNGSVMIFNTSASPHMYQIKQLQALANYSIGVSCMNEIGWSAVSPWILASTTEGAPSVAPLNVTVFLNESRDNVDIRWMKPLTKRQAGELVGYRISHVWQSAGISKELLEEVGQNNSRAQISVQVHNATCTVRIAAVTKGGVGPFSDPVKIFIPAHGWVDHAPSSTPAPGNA
Protocol: as §1
B1 showed a Kd of 13.9 nM. B2 gave a Kd of 14.3 nM. B3 showed a Kd of 1.8 nM. Work on B4 yielded a Kd of 4.3 nM.

These binders were tested against T3, mouse MerTK (mouse, UniProt Q60805 23-496) (assay: SPR BIAcore T200, Ab captured, 25C).
T3 construct: also called MuMER
T3 sequence (looked up): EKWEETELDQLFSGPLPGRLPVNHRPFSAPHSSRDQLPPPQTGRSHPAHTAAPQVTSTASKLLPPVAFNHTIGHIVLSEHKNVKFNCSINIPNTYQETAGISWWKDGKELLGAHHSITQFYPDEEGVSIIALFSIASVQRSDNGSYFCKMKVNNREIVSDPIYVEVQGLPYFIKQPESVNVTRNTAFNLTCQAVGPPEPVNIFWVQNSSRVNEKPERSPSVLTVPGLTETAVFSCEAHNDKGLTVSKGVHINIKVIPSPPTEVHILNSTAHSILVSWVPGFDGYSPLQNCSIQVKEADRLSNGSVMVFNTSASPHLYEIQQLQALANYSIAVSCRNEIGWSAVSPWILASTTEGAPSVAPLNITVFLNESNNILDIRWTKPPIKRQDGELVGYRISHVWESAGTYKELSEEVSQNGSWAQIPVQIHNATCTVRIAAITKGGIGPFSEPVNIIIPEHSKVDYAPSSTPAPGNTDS
Protocol: as §1
In the case of B1, the Kd is reported as 8.5 nM. Work on B2 yielded a Kd of 4.1 nM. B5 was tested, and the Kd was 0.6 nM. Work on B4 yielded a Kd of 1.7 nM.

What follows are binders tested against T1, human MerTK (assay: SPR BIAcore T200, Ab captured, 37C).
Protocol: as §1
B3 showed a Kd of 4.9 nM.

The binders below were run against T2, cynomolgus monkey MerTK (assay: SPR BIAcore T200, Ab captured, 37C).
Protocol: as §1
For B3, the Kd was 5.9 nM.

What follows are binders tested against T4, MuMER.Ig1&2 (A70-P279) (mouse, UniProt Q60805 70-279) (assay: SPR BIAcore T200, Ab captured, 25C).
T4 construct: range 70-279; also called mouse MerTK Ig-like 1&2 domains
T4 sequence (looked up): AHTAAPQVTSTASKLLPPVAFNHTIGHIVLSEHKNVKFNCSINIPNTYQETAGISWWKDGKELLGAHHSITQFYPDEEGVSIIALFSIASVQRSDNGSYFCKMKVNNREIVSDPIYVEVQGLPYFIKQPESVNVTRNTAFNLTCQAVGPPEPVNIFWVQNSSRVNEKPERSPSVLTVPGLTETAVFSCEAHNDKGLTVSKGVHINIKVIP
Protocol: (§2) Binding affinity determinations were obtained using Surface Plasmon Resonance (SRP) measurements from a BIAcore™-T200 instrument. Briefly, each rabbit antibody was captured to achieve approximately 100 RU (Response Units). Then, 3-fold serial dilutions of the various MerTK domains (0.4 nM to 100 nM) diluted in HBS-EP buffer (0.01M HEPES pH 7.4, 0.15M NaCl, 3 mM EDTA and 0.05% v/v surfactant P20) was injected into the BIAcore™-T200 instrument at 25° C. or 37° C. with a flow rate of 30 μl/min. Association rates (kₒₙ) and dissociation rates (koff) were calculated using a simple one-to-one Langmuir binding model (BIAcore T200 evaluation software version 2.0). The equilibrium dissociation constant (KD) was calculated as the ratio koff/kₒₙ.
(§3) Antibody epitope determination was assessed by BIAcore analysis for rabbit antibodies binding against both the human and mouse MerTK extracellular domain (HuMER R26-A499 and MuMER E23-S496), Ig1&2 domain, Ig1-only domain, and Ig2-only domain (TABLE 18). Human MerTK and its domains are shown in light gray, while mouse MerTK and its domains are shown in dark gray.
Work on B1 yielded a Kd of 11 nM. Work on B2 yielded a Kd of 3.4 nM. Binder B5 has a Kd of 0.5 nM. In the case of B4, the Kd is reported as 1.9 nM.

The binders below were run against T5, MuMER.Ig1 (A70-G190) (mouse, UniProt Q60805 70-190) (assay: SPR BIAcore T200, Ab captured, 25C).
T5 construct: range 70-190; also called mouse MerTK Ig-like 1 domain
T5 sequence (looked up): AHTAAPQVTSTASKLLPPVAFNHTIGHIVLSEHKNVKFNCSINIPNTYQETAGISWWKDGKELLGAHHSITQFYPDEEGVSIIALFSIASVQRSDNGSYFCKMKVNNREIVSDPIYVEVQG
Protocol: as §2, §3
Work on B1 yielded a Kd of 2.2 nM. Work on B5 yielded a Kd of 0.1 nM. B4 showed a Kd of 0.2 nM.

What follows are binders tested against T6, HuMER (R26-A499) (human, UniProt Q12866 26-499) (assay: SPR BIAcore T200, Ab captured, 25C).
T6 construct: Extracellular domain with both Ig-like and both fibronectin-like domains; also called human MerTK extracellular domain
T6 sequence: T1 sequence
Protocol: as §2, §3
With B1 the Kd was 18 nM. With B2 the Kd was 31.3 nM. Work on B3 yielded a Kd of 2.9 nM. B4 gave a Kd of 2.3 nM.

What follows are binders tested against T7, HuMER.Ig1&2 (G76-P284) (human, UniProt Q12866 76-284) (assay: SPR BIAcore T200, Ab captured, 25C).
T7 construct: also called human MerTK Ig-like 1&2 domains
T7 sequence: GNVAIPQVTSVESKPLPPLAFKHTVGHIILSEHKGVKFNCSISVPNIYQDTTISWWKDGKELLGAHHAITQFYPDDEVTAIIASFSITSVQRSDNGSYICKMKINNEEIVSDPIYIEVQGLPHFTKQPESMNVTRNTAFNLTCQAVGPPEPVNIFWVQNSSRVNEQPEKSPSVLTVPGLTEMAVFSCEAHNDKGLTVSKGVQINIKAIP
Protocol: as §2, §3
With B1 the Kd was 92 nM. B3 showed a Kd of 8.8 nM. Binder B4 has a Kd of 21 nM.

What follows are binders tested against T8, HuMER.Ig1 (G76-G195) (human, UniProt Q12866 76-195) (assay: SPR BIAcore T200, Ab captured, 25C).
T8 construct: also called human MerTK Ig-like 1 domain
T8 sequence: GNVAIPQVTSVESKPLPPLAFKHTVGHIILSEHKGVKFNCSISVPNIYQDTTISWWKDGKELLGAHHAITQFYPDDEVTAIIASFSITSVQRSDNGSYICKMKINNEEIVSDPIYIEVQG
Protocol: as §2, §3
B1 gave a Kd of 16.7 nM. Binder B2 has a Kd of 39.8 nM. B3 showed a Kd of 0.3 nM. B4 showed a Kd of 0.5 nM.

Each binder was assayed against T9, MuMER (E23-S496) (mouse, UniProt Q60805 23-496) (assay: SPR BIAcore T200, Ab captured, 25C).
T9 construct: range 23-496; also called mouse MerTK extracellular domain
T9 sequence (looked up): T3 sequence (looked up)
Protocol: as §2, §3
Binder B1 has a Kd of 8.5 nM. Work on B2 yielded a Kd of 4.1 nM. B5 gave a Kd of 0.6 nM. B4 gave a Kd of 1.7 nM.
